According to US20250019428A1 (Janssen / Centocor, published 2025):
Changes are numbered by the printed parent chain. In names and notes the source's numbering stands.

Legend:
[1] = target: T1, recombinant human TNFα (human, UniProt P01375 77-233, 125I-labeled in the receptor inhibition assay); experiment: competition radioligand assay: mAb in hybridoma supernatant preincubated with 5 ng/ml 125I-TNFα, then binding of 125I-TNFα to plate-coated p55-sf2 counted as cpm bound
T1 construct: It is not expressly tied to the assay protein, so it is not used here; also called huTNFα; tumor necrosis factor alpha
Protocol: Varying amounts of hybridoma cell supernatants containing known amounts of TNV mAb were preincubated with a fixed concentration (5 ng/ml) of ¹²⁵I-labeled TNFα. […] The amount of TNFα that bound to the p55 receptor in the presence of the mAbs was determined after washing away the unbound material and counting using a gamma counter. […] Each sample was tested in duplicate. The results shown are representative of two independent experiments.
(§1) 50:1 of p55-sf2 at 0.5:g/ml in PBS was added to Optiplates to coat the wells during a one-hour incubation at 37° C. Serial dilutions of the eight TNV cell supernatants were prepared in 96-well round-bottom plates using PBS/0.1% BSA as diluent. […] The mixture was preincubated for one hour at RT. The coated Optiplates were washed to remove unbound p55-sf2 and 50:1 of the ¹²⁵I-TNFα/cell supernatant mixture was transferred to the Optiplates. After 2 hrs at RT, Optiplates were washed three times with PBS-Tween. […] of Microscint-20 was added and the cpm bound determined using the TopCount gamma counter.
A simple binding assay was done to determine whether the eight TNV mAbs contained in hybridoma cell supernatant were capable of blocking TNFα binding to receptor.

[2] = target: T1, recombinant human TNFα; experiment: cell-based or functional assay
[3] = target: T1, recombinant human TNFα; experiment: competition: 125I-TNFα binding to coated p55-sf2, hybridoma supernatants
Protocol: as §1
A simple binding assay was done to determine whether the eight TNV mAbs contained in hybridoma cell supernatant were capable of blocking TNFα binding to receptor. The concentrations of the TNV mAbs in their respective cell supernatants were first determined by standard ELISA analysis for human IgG.

[4] = target: T2, human lymphotoxin (human, UniProt P01374 35-205, limits assumed); experiment: not described
T2 sequence (looked up): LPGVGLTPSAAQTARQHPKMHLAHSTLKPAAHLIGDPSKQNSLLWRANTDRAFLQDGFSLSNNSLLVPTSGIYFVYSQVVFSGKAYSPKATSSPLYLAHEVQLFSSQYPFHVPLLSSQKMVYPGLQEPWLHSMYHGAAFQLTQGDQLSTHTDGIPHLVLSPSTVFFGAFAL

B1: GenTNV148.26.12 (antibody, human IgG1, kappa, V domains shown)
VH: QVQLVESGGGVVQPGRSLRLSCAASGFIFSSYAMHWVRQAPGNGLEWVAFMSYDGSNKKYADSVKGRFTISRDNPKNTLYLQMNSLRAEDTAVYYCARDRGIAAGGNYYYYGMDVWGQGTTVTVSS
VL: EIVLTQSPATLSLSPGERATLSCRASQSVYSYLAWYQQKPGQAPRLLIYDASNRATGIPARFSGSGSGTDFTLTISSLEPEDFAVYYCQQRSNWPPFTFGPGTKVDIKR
notes: Hybridoma-derived human IgG1 kappa; also called C420A
- IC50 (read off the curve) [1]: ~3 ng/mL
- neutralizing TNFα bioactivity [2]: 4 fold
- fold better at blocking TNF binding (against TNV118 and TNV14) [3]: ~4 fold

B2: GenTNV86.14.34 (antibody, human IgG1, kappa, V domains shown)
VH: B1 VH
VL: B1 VL
notes: The constant region allotype is uncertain, as explained in the m8 note; also called C417A
- fold better at blocking TNF binding (against TNV118 and TNV14) [3]: ~4 fold

B3: GenTNV15.28.11 (antibody, V domains shown)
VH: B1 VH with I28T, N43K, M51I, S52L, P75S, T78A, I102V, A103S
VL: EIVLTQSPATLSLSPGERATLSCRASQSVSSYLAWYQQKPGQAPRLLIYDASNRATGIPARFSGSGSGTDFTLTISSLEPEDFAVYYCQQRSNWPPFTFGPGTKVDIK
- IC50 (read off the curve) [1]: ~3 ng/mL

B4: golimumab (antibody, human IgG1, kappa, V domains shown)
VH: B1 VH with P75S
VL: B1 VL
modifications: N-glycosylated on asparagine 306
notes: Fully human IgG1 kappa; The commercial material is expressed in Sp2/0 cells; also called SIMPONI
- binding result [4]: no binding
